# Laboratory results reported in the supplement of paper PMC10567573.
# B1: AUP1 (parent)
# chain: EGLLRFSSWPFSIQDVVQPLTLQV
# B2: TRIM43 (parent)
# chain: NRFRVEISFHFEVTNHNIRLFEDV
# Variants of: B1
# Assay: protein stability index of a GFP-peptide fusion (GPS, HEK-293T) (PSI 1-6); higher = more stable
# Settings: c terminus: a fixed tail appended
# 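Note: lentivirally expressed fusions sorted by FACS into six bins by GFP to DsRed ratio, PSI derived from sequencing read proportions per bin multiplied by bin number.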
row,Variant,protein stability index
1,L3C,4.98
2,L3A,1.76
3,L3V,2.22
4,L3T,4.12
5,L3P,2.44
6,L3E,2.41
7,L3K,2.2
8,L3D,1.83
9,E1P,1.82
10,E1C,3.48
11,E1Y,2.78
12,E1S,2.31
13,E1R,4.19
14,E1I,1.02
15,E1M,1.43
16,E1N,2.31
17,E1T,1.8
18,F6N,1.4
19,F6A,1.15
20,F6L,2.09
21,F6Y,1.33
22,F6V,1.73
23,F6Q,1.65
24,F6K,1.7
25,F6W,2.94

row,Variant,protein stability index
1,F6H,1.34
2,F6D,1.46
3,F6S,1.24
4,F6P,2.07
5,F6T,1.06
6,F6E,1.36
7,W9S,1.73
8,W9N,1.42
9,W9C,3.91
10,W9T,1.86
11,W9P,1.28
12,W9A,3.6
13,W9E,1.66
14,W9I,2.27
15,W9L,2.97
16,W9M,2.45
17,W9Q,2
18,W9K,2.62
19,W9Y,3.88
20,W9R,1.48
21,W9D,1.58
22,S7P,2.2
23,S7N,2.32
24,S7I,3.04
25,S7M,2.94

row,Variant,protein stability index
1,S7D,2.32
2,S7R,1.33
3,S7H,2.13
4,S7Y,3.72
5,S7W,1.83
6,L4N,1.52
7,L4S,1.27
8,L4C,3.27
9,L4G,4
10,L4K,1.19
11,L4I,3.16
12,L4D,2.08
13,P10N,2.05
14,P10H,4
15,P10I,1.55
16,P10Y,3.85
17,P10T,2.79
18,P10D,2.04
19,P10A,3.01
20,P10M,2.26
21,P10G,1.88
22,P10V,3.54
23,S8T,2.62
24,S8C,2.25
25,S8F,3.08

row,Variant,protein stability index
1,S8E,2.23
2,S8G,2.57
3,S8A,2.17
4,R5D,1.73
5,R5G,3.46
6,R5M,1.56
7,R5E,4.2
8,R5K,1.37
9,R5S,2.64
10,R5F,3.67
11,R5T,3.1
12,R5W,3.31
13,G2R,2.83
14,G2E,2.63
15,G2H,3.65
16,G2C,3.51
17,F11Q,1.73
18,F11M,2.22
19,F11G,1.05
20,F11P,2.46
21,F11D,1.04
22,F11K,1.78
23,F11N,1.85

# Variants of: B2
# Assay: as above
# Settings: c terminus: a fixed tail appended
row,Variant,protein stability index
1,R19I,2.06
2,R19D,3.62
3,E6D,2.34
4,E6V,3.86
5,E6P,2.27
6,E6G,2.02
7,I18V,2.97
8,I18Q,3.52
9,I18H,3.18
10,I18S,2.35
11,I18Y,3.23
12,N1D,3.89
13,N1R,2.37
14,E22P,2.14
15,I7D,2.44
16,I7R,2.85
17,I7F,3.57
18,I7G,2.43
19,I7P,1.81
20,I7T,1.68
21,V13E,4.46
22,V13D,1.93
23,R2Q,3.46

row,Variant,protein stability index
1,R2S,1.5
2,R2V,1.92
3,R2D,2.46
4,R4A,3.36
5,S8C,2.02
6,S8G,2.38
7,S8R,2.43
8,N15P,3.72
9,N15T,1.49
10,N15C,3.41
11,N15F,3.62
12,N15M,2.49
13,N15D,2.5
14,H10N,2.63
15,H10E,2.98
16,T14L,2.29
17,T14E,2.04
18,F9E,1.95
19,F9R,1.76
20,F9A,2.87
21,V5W,2.53
22,V5S,2.08
23,V5T,3.37

row,Variant,protein stability index
1,V5R,1.5
2,F21L,2.29
3,F21R,1.88
4,F21Q,3.09
5,E12A,2.58
6,E12L,2.91
7,D23K,1.95
8,D23I,3.66
9,D23G,3.13
10,H16R,4.01
11,H16L,1.82
12,F3K,2.36
13,F3C,2.54
14,F3D,3.13
15,F3A,3.07
16,F11Q,2.38
17,F11P,1.58
18,F11D,1.27
19,F11K,1.46
20,F11S,2.74
21,N17I,1.37
22,N17K,2.61
23,L20V,4.23
